# Measurements from article PMC8628696, “Stable DNA Aptamer–Metal–Organic Framework as Horseradish Peroxidase Mimic for Ultra-Sensitive Detection of Carcinoembryonic Antigen in Serum”.
# B1: CEAapt-TDN (strands D+A+B+C) on PCN-222(Fe) MOF (structured_DNA)
# DNA 1: ATACCAGCTTATTCAATTTTTTTTACATTCCTAAGTCTGAAACATTACAGCTTGCTACACGAGAAGAGCCGCCATAGTA
# DNA 2: TATCACCAGGCAGTTGACAGTGTAGCAAGCTGTAATAGATGCGAGGGTCCAATAC
# DNA 3: TCAACTGCCTGGTGATAAAACGACACTACGTGGGAATCTACTATGGCGGCTCTTC
# DNA 4: TTCAGACTTAGGAATGTGCTTCCCACGTAGTGTCGTTTGTATTGGACCCTCGCAT
# modifications: 5' phosphate on strands A, B and C
# Molecular target: carcinoembryonic antigen (CEA) (human, UniProt P06731 35-685)
# Assay: colorimetric antibody-aptamer sandwich assay; MOF-grafted tetrahedron 25 ug/mL; CEA 20 ng/mL; antibody-captured CEA; Colorimetric sandwich assay: TMB 2 mM, H2O2 0.2 M, detection time 20 min; binding buffer, pH and temperature not given in the material (storage in PBS at 37 C)
# Conditions: protein: commercial; label: grafted on PCN-222(Fe) MOF via 5' phosphates (peroxidase mimic); DNA tetrahedron of 4 strands with single-stranded 5' aptamer extension on strand D
# Chain of carcinoembryonic antigen (CEA) (P06731 35-685): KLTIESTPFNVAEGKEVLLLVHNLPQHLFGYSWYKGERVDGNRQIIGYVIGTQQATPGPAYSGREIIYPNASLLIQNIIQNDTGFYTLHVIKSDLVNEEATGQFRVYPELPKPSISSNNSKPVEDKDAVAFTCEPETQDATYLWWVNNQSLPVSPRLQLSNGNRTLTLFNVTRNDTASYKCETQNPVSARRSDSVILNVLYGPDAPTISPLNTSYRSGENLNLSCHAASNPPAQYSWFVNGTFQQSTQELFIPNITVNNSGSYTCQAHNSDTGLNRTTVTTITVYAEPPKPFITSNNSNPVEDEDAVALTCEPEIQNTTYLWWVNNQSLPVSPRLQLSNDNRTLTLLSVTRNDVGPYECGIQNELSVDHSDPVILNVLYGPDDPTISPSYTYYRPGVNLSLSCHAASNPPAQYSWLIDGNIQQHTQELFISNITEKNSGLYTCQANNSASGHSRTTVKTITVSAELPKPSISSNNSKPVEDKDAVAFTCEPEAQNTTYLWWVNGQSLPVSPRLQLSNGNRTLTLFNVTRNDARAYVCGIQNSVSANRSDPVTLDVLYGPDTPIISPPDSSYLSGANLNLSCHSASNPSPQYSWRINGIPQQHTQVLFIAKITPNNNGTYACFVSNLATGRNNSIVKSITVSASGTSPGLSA
binder,measurement,value
B1,binding result,binds
